Assay: soluble fraction after stress (log2 fold change); higher = more stays soluble; pooled small domains, quantitative proteomics
Conditions: stress: pH 4
Summary of the method: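 Aggregation propensity is read out as the fold change in how much of each domain remains soluble after acid stress. The custom small-domain libraries were pooled, held at pH 4 and analysed with high-throughput quantitative proteomics. On the log2 scale used, higher values mean more of the domain stayed soluble.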

Sequence | soluble fraction (log2)
HMRIDVWLAENGFAPSRQKAQDLIAAGRVFQTDPSGRRQKVSKASAAVDPALSPKIEVIPDPE | 0.068
HMSFGWESLENKEGVADTDLHPSGWVRIEDSRIFVVSEGDFINKGSKVTVLTVDGNRVVVRELI | -1.79
HMELNEIEFENLKESIIIHLEKESLSPHELVKHIQTIHPDKVTAVIQWMLENGFIKTDAGGQLTLVSK | -0.485
HMNVPLYIMIESAVEQRLLDGTYQVGKMIPTEFELMDEFSVSRETVRKAINLLVQRGKLEKKRGIGTFVAS | -0.26
HMEPAPELTPREQQVLARIALGMTDKAIAEELGVSHQTVRNHVARIYQKIKVHSRSQAVVWAREKGI | 0.0801
HMLDTPLTARELDVLYLMRQRMSAKEIAKQLGIATMTVNRHAANLYRKLGVNTRWDAVYRAEEVGILPP | -0.592
HMQKPDIEVDFAEGDMVVVTGGAWKDTAGVITGINMQKQTVTINVELFGRETPVEISFTEIKKA | -0.799
HMGKTTQEIEERSSTSTLTLTQTPKEIISVQGKKSDQSFFTNIQYTQNGKVIVPKQTGIYDTIKVVFTVSL | -0.256
HMDLPDTLSMPNALKVLEDNGFPTSKAKLYKMTSQEQIPFMKYGNKLVFSRKALIEWAHKQLV | 0.301
HMTIKNHIDEILKKEPFILENIKNGLINISALARQIEPQLSRKVGKKLNVNAIIMTIKRMEIDQLNK | 0.0888
HMSPPALAVQRDGSNVQISWPGAEEGWRLESSAEPSGAAWDLIAQNPTPVGGRWTVSLTEPTGRRFYRLVK | 0.039
HMNIIMLGEFIKEQRIKRKMTQEYLASELGISRPTYSQIELGTRELTIPEARKMAAIFNISLEDFLAEKE | 0.149
HMKRRSLQVGDIVQVRSLNVKGEVVSIGKNEVVVAVGRLQMRAGFDDLDFKERPKEEREVESV | 0.0749
HMIDVGSKIRSLRKSKNISISTLAKNSDLSTGLISQIERNMVVPSIVAMWKISKALDINIGYFFE | -0.109
HMGERMELTLDNPREAIPVLDAMGFANYQVVDKEHIHIFERLNESALVNMELAKAGIPVKGISITSE | -0.523
HMAHESYVKEQLLLSLTNHEDPIMQISLIEQLTKMHERNIIHELEKLTVDVQTNEEVKVQAYASLLILS | -0.962
HMGAYIPSYAPVDINAATHTVVRGDTVYNISKRYHVSQEDFRAWNGMADNTLSIGQVVKVKPAGYTAPK | 0.22
HMGTAVKAPMPGTILKVNVTAGQSVKAGDIMFILEAMKMENEIVAPSDGTVSQVVAAKGSSVATDDVLAYL | -0.0993
HMKGIHDYITKDGLRVVKVHYSADPDKDVTTVEGKKWMAKALLGYPGGLEGAKWRREMEIDFNA | -0.258
HMKPPTIELSYSEFIELVERGKVSKVIFSSDNYTLKGETVNGENFETVRPPFLEDNLSEILTIHKVPVSSE | -0.785
HMATNVLEISTRNKNILIQDSLNLVESFYSKSDNQYWYKLVFKTKDDLNKFLQEVSEDENTITYKTSSI | -0.194
HMSEQLVGTVGHITVGTARTASPAEAKFLDAFEQPHYLLVEPIEPKDIFQQGDKVVLVKKQHHSWLATRYI | 0.0779
HMGTTKGVVDVTVPNGRASQHVKLVVIDDDGGRVVYDGTNAPGDRIVKSVSGSGNVRVQIYLNNALVQEQS | -0.306
HMLPGWMETKFTANVSENTKNRTLEEHVLKMLNNKESAAEFIIFLHEKMMSVSGQVFQLDSR | -0.0998
HMDQTKYDAIITEAKKLTAEGQYKESEEKLATIPVSDLGKPHYSIVKETVEKLNNQNNEGLKRQEEVAVE | -0.0626
HMKGSPFSQLPKEKKKRILQAAIEVFAQNDYKHASTDEIASRAGISKGLLFYYFHDKKTLYFYLGEYLKR | 0.173

Sequence | soluble fraction (log2)
HMNESEALIARIENLPPIEDLTEKHAEEVKALMTVYSKLKMSDRILVTNYGVLKKDFDALVKKGFLTNED | 0.0976
HMQVEMVLSQEAHEWLLQRGFIPEYGAREMDRVIAAHLKPLLMREILFGTLKAGGKVRVQVENGALKLQP | -1.74
HMVVMEIGANGSEVVKLQKRLNQLGYYTEHASGVYDVKTASAVNEFQRQNELNATGKADYTTLDMIYNQ | -0.204
HMGKPVTMELLIPYSQGSLVHRISEAGEVAKTEYQNDGTYMQVTFTPSAKDHALMQEVASYRI | 0.0901
HMIIVMRKGATEAQVNDIVERVRAAGFGVHLSQGEERTIIGAIGGDRAVLADLNLEAAPGVERVTPIS | -0.0491
HMTFPAILRELLEKHPQTGKRTTLKELGEAVGTRQQSISLYRNGDTQPSPDILVRIAAFFGVSVDYLL | -0.198
HMSNENIDQDELQAIIQKVLASNQDAVAKYKAGKTAVIGFLIGQVMRQLNKKIDVALAKKTLLVFLEK | 0.0782
HMNSNQESFENWLSANSWYNKDRAMRVFADSLGQELRNSGVSFEKALTQISAEVRKEFSHKFQ | -0.213
HMELNELTSRELMVAEQVARGASNREISEALSISERTVKAHLSAAFEKLGVRDRVQLALAMNNIPT | -0.886
HMEKIIFEISEEGKRLDLYIAERTELTRTRIQQLIKDGNINVNNKKSKPSYKVEKNDFIEMIIPDE | -0.49
HMTSKVTVLAVNGRITVSGKEQDETVSVYDTGGRLLYQGESDVINVPRKAMYIVTVSRKSYKVIV | 0.00912
HMGYDLLFQQALGFHEQGRLNEAENIYRQILETAPNNPDILNLLGLIAQQKGLHAQAVDYFYQAIRL | -1.9
HMDEWKRKELWDAIARLPKIQRMVVTMRTTENLPYKEIAKIMNISENSAKVNYHHAVEALKIFF | 0.0454
HMEQETVTVPDLVGKDVVAAQAELHEMGLSGKPDGTGTTVVSQFPVAGARVLKHTNVILYTED | 0.0839
HMGGLAEGTKITLQNTVNVRASMGEDAEKIGTAYAGEKVTVIMSYAEGWTKVTWNDKTGYIKTSLL | -1.04
HMVAQQINDFRSERDASTGTLKRPLFDTLRDVISSRAQAYVSATGKPVTVEDLDRIYQAVEAEAKQAL | -0.349
HMAVQEDAGLAREDLPPEVQGLLQEREAARAAKDWGKSDALRRQLQDLGYAIKDTAQGMEIKRT | 0.101
HMKTDLQIQQDVMAELKWEPKVNAAHIGVEVKHGVVTLSGHVDSFAEKWNAEQAAKRVAGVKFIAIELDV | -0.0349
HMRNMVSVLDHIEGIGPKRRQLLYEHYGELEKIKEASVEEMAGLDGMNRPAAEAVYNFFLAQRNL | -0.308
HMFGEKEFYQWIGKTAGEKFSGLPAAVIKSLYKYWREYNLSEEDIMGFIRQTELLPKRTPLDVELFFEK | -1.36
HMEVSEGEIREKVESVFSSNPRQAYNYKQISKKLNINDKSERQIVWDVLRKLAGSGKIQEVEHGRFRARAE | -0.0385
HMQNGNLVDVYLNWRGKYYAIKMFFPNSKMPRRSDVQDQIVKVYPDARVQSFQVSKYVPGQPFL | -0.431
HMRMDKHLWLSLLRLINEGSAEELQTKKDELLQSLERLRITRGPVRGDVLRVVRLIDEELVSRLHLDQR | -0.697
HMGLWWTEAERELVKTTIEQLYKDTNIAEPVDSKNLRASIPALKAMRTGLSAENQARVDTLLGALQV | -0.915
HMESYWVVLRPMAAGTQIGANDLGYRSVALGAAAKNYLAASTNPIGSITRRRLVAGELLQGSSLTDDARA | 0.185
HMKRSVIVTAERAEVRQKADEGSALVFEAEKNVSLEYLEAAPGGWVKVRHLDGQSGFVRGNQI | -0.901

Sequence | soluble fraction (log2)
HMGDFLLTPHRGRSADFVIGNPPYIRLEDVPNDISDAYRAEYASMPGRADIHVGFYEKGLDL | -0.506
HMVDITPDLIRTLLERFGEYGVTKEHIEARIQRHIESILPAQVVQLRKTYNSLKDGMSQPSDWFDI | -1.43
HMSILEIFGRNVQKYRKEQRLSQEKLAEYAGLHRTYIGMIERAEKNITLVNIEKIAKALNINLTKLLE | 0.0741
HMSAAYVYVTGTRVNQRDGPSTFDRVMGVLVEGTRVQLLRDQGQWAQIRSDLGTGWLSSGFLSRNG | 0.0158
HMRTANREKRIEASVKMMKAGYPVGYIIARVFMYEGWEEDYRQLLIYLSEKIPKDVSNPITFEVIS | -0.317
HMAPPIQQQVESLMNSFAKIGVTVPMLESRLQHAMSAVTANELVMLRKIGASIRDGFATVAEQFPA | 0.0598
HMQKITPDNWTYIRSLIRQKWSPDQIDQWLKKHPDVGFTVSRETIYQYVKEDRQKDGDLYLSLRRAGKSY | -1.11
HMKFLHLADLHLGKRVNGFSMLEDQAYILRQILTILDDERPDGVLIAGDVYDKPVPPTEAVELLD | -0.632
HMLPVFNYQVYRTHGLIYVYAKDNDSFDQIARSMGFKAKQLMKFNEVPEDFPLQAGDIVYLEKKKK | -0.368
HMEPLIRTLEEQIAEKIKNYRKGTRVYDAEHVDRWISQLPEEERMVVLTETNRLLEQNYVDQAKLME | -0.803
HMPEGTYLEKLAIENNNLQLIGLSREASQLVQLLQDAPQWRKVNLTGVLQADGAASGRDRFTMTAELQ | 0.187
HMIGDNNELFQKAQLTPREKEVALLLLQGETNSDIAKILYVGLSTVKKHISSIFEKTKVKSRTEFISKVR | 0.0668
HMPGRKTTFEERLSIIEDLIKHDVNYSWAVDKYHVSYQQVYGWYQKYRKSGNDPQSLRDRRGK | ≥ 0.43
HMKSVTVIFKESGNVVSSKKLSVVATAQYVDKSRITAPAGYRIATTDSKLKISENNTVTVEVK | -0.1
HMRQDEKTLLYWIGAQVKREGKLIKTSTAQYLVEKTGTDMENLEKELEKLFAYTLDEKEITPAAIDEI | -1.21
HMELGYTPNNLRSVRAKYGLTQKQVAEITGLKTWHPVNRWEAPVEAAYHADMPHTKWLKLLDELSSR | -0.0144
HMNVVINNELVSLMVEAMKDGVSSKSIQEEFEGYKISGKTITKKVLTAHVNKALEVFADMQE | -0.477
HMEERDMKGSISDLVERYADQLTDEQLEEIVLGIKNGLLEEDVKSYFFLPAEDMRRIRTALEQVR | -1.6
HMADMKIHLRPYAHDTNRWHVDIRLMHPTAATEIRKRLVAPAGLSEAQARAWGERQVPTILGKALGVI | -0.042
HMARKTIFHSLLGELEQRIGRLPAGTILPAEQALADEYGVSKPTLRRALAELAEHGLITKENGIGSVVI | ≥ 0.43
HMSFPFLMPNLEGLQLDQVRVILEENGLEIGQENYQPDSKFGPGTIINHQPSVDTVVQTGQKVNLQISGTD | -1.14
HMQYKTRVINLSILEVGMVLGRDLINKDGKIIVKKDVAISDFLKDHLIGLSKIKEIEPQIYIKV | -0.452
HMNNGTDGLTTRLRRAILAGQYTFKERLPSERQLAEHFNTSRGTVRKVLQRLTTMNLVEQRAGSGTYVRYG | 0.22
HMELPSDEHLDDISHLARIGHKKGLQEKIIQLEQQGLASAEFIQQLKTLTNNFQFEKIIQWVDSEL | -0.848
